In PMC10116596 (Biochemistry, 2023):

Columns and labels:
[1] = target: T1, LcrH_(1–168), class II chaperone LcrH from Y. pestis (Y. pestis, UniProt P21207 1-168); experiment: ITC; conditions: both partners purified
T1 construct: also called LcrH/SycD
T1 sequence: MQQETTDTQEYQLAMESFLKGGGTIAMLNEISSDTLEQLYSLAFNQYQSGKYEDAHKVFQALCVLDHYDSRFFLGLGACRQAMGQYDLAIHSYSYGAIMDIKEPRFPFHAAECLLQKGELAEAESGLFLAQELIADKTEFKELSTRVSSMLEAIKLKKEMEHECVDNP

LcrH = target: LcrH; set-up: method as in PMID 23233673; conditions: unbound chaperone weak homodimer; read-out: dimerization KD; cited from earlier work

Molecule	Kd [1] [µM]	dH [1] [kcal/mol]	Kd (LcrH) [µM]
QGVQLPAPLA (source: synthetic peptide) [YopB_(48–57) 10 mer N-terminal anchor peptide of the major translocator YopB]	155	-10.5	–
LcrH: class II chaperone from Yersina Sp., forms weak homodimers when unbound (protein) MQQETTDTQEYQLAMESFLKGGGTIAMLNEISSDTLEQLYSLAFNQYQSGKYEDAHKVFQALCVLDHYDSRFFLGLGACRQAMGQYDLAIHSYSYGAIMDIKEPRFPFHAAECLLQKGELAEAESGLFLAQELIADKTEFKELSTRVSSMLEAIKLKKEMEHECVDNP	–	–	~15
QVPELIKPSQ (source: synthetic peptide) [YopD_(56–65) 10 mer N-terminal anchor peptide of the minor translocator YopD]	82	-12.2	–
